In patent US20250269025A1 (AVENCELL THERAPEUTICS, published 2025):
No end group written: not given here.

Experiments:
[1] = molecular target: T1, CD123 on CD123 positive AML cells (Oci-AML3, Molm-13, MV4-11, primary AML cells) (human, UniProt P26951 19-378); experiment: cellular binding assay per table caption, Molm-13 cells
T1 construct: whole, on cells; Endogenous CD123 on human AML cell lines; also called target antigen CD123

[2] = molecular target: T1, CD123 on CD123 positive AML cells …; experiment: cellular binding assay per table caption, Oci-AML3 cells
[3] = molecular target: T2, La epitope 5B9 (SEQ ID No. 28) fused to human Fc domain (human, also: fused to human Fc domain, order, isotype, linker not given here); experiment: SPR, Biacore X100, La epitope 5B9-human Fc on CM5 chip; KD 5B9 (second number of the cell)
T2 construct: Coupled to a CM5 sensor chip; not shown: human Fc domain
T2 chain: KPLPEVTDEY
Method: Furthermore, binding of different variants of the targeting module according to the invention was analyzed using the La epitope 5B9 (SEQ ID No. 28) fused to human Fc domain which was coupled to a CM5 sensor chip on a Biacore X100 device (FIG. 3). The targeting modules were purified monomers. The targeting modules were concentrated between 2.47 to 200 nM and measured in technical duplicates. For data fitting and KD calculation a two-state-reaction binding model was applied.

[4] = molecular target: T3, human CD123-Fc (human, UniProt P26951 19-305, limits assumed); experiment: SPR, Biacore X100, human CD123-Fc on CM5 chip, 1:1 model; KD CD123 (first number of the cell)
T3 construct: Coupled to a CM5 sensor chip; also called soluble recombinant CD123; not shown: Fc part
T3 sequence (looked up): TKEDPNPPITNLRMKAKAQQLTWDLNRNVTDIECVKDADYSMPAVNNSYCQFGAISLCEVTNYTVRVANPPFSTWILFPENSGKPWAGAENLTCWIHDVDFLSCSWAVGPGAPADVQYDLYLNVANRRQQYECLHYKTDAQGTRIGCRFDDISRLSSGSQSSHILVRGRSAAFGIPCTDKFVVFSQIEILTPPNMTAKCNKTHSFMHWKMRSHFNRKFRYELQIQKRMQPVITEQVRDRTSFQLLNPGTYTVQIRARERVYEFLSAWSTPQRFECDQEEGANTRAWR
Method: Binding of different variants of the targeting module according to the invention was analyzed by SPR measurements using human CD123-Fc coupled to a CM5 sensor chip on a Biacore X100 device (FIG. 2). Targeting modules were purified monomer except for the targeting module according to SEQ ID No. 8. […] For data fitting and KD calculation a 1:1 binding model was applied.

[5] = molecular target: T1, CD123 on CD123 positive AML cells …; experiment: flow cytometry on Molm-13 cells, anti-His-PE detection. Half-maximal binding from a four-parameter fit of gMFI. Unit taken from the concentration axis [M]
Method: Cellular binding of CD123-binding targeting modules (TM) was tested on CD123 positive target cell lines Oci-AML3 and Molm-13: A) SEQ ID No. 5 to Oci-AML3, B) SEQ ID No. 9 to Oci-AML3, C) SEQ ID No. 4 to Molm-13 and D) SEQ ID No. 6 to Molm-13. The affinity of TMs was analyzed by flow cytometry. The TMs were titrated on an AML cell lines and then detected by a mouse anti-His-tag antibody conjugated to phycoerythrin.
Different concentrations of R-TM123 were incubated with cells, washed and quantified. A dose-response curve was obtained when the geometric mean fluorescence (MFI) was plotted against the TM concentration.

EC50 [1]: 0.0017 nM | EC50 [2]: 0.0062 nM | Kd [3]: 2.1 nM | Kd [4]: 0.044 nM | Kd [5]: 7.69 nM
B1: targeting module according to SEQ ID No. 6 (bispecific antibody)
chain: EVQLQQSGPELVKPGASVKMSCKASGYTFTDYYMKWVKQSHGKSLEWIGDIIPSNGATFYNQKFKGKATLTVDRSSSTAYMHLNSLTSEDSAVYYCTRSHLLRASWFAYWGQGTLVTVSAASGGGGSGGGGSGGGGSDFVMTQSPSSLTVTAGEKVTMSCKSSQSLLNSGNQKNYLTWYLQKPGQPPKLLIYWASTRESGVPDRFTGSGSGTDFTLTISSVQAEDLAVYYCQNDYSYPYTFGGGTKLEIKAAARGDIVMTQSPDSLAVSLGERVTMNCKSSQSLLNSRTPKNYLAWYQQKPGQSPKLLIYWASTRKSGVPDRFSGSGSGTDFTLTISSVQAEDVAVYYCKQSYNLLTFGGGTKLEIKGGGGSGGGGSGASAAGGGGSGGGGSQVQLVESGAEVVKPGASVKLSCKASGYAFTHYYIYWIKQAPGQGLEWIGGVNPSNGGTHFNEKFKSRATLTVDTSISTAYMELSRLRSDDTAVYYCTRSEYDYGLGFAYWGQGTLVTVSSGGGGSHHHHHHHH
notes: also called muCD123 + rs5B9-VL-VH
